For one assay, the target named is T1, ratFGFR1a-IIIc (rat, UniProt Q04589 22-376).
T1 construct: Bought, His6 tag; also called rat FGFR1a-IIIc His6-tagged
T1 sequence (looked up): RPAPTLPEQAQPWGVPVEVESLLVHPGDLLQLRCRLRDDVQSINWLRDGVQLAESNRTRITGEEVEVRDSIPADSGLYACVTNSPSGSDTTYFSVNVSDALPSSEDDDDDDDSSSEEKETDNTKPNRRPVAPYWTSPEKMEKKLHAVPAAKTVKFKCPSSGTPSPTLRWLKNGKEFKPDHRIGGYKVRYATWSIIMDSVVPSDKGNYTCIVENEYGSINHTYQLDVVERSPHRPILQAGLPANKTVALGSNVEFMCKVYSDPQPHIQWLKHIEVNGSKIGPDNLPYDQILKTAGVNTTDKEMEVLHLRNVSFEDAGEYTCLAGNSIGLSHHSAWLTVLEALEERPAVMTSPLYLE
Put plainly: SPR (Biacore 4000), antibody captured, His-tagged FGFR1 injected. As to the method: (§1) Binding affinities of anti-FGFR1 antibodies to FGFR1 were measured by Surface Plasmon Resonance (SPR) using a GE Healthcare BIAcore 4000 instrument as follows. Goat anti-human Fc antibody (Jackson ImmunoResearch Laboratories #109-005-098) was first immobilized on BIAcore carboxymethylated dextran CM5 chip using direct coupling to free amino groups following the procedure described by the manufacturer. Antibodies were then captured on the CM5 biosensor chip to achieve approximately 200 response units (RU). Binding measurements were performed using the running HBS-EP+ buffer. A 2-fold dilution series of His-tagged FGFR1 proteins were injected at a flow rate of 30 μl/min at 25° C. Association rates (kₒₙ, per mol/s) and dissociation rates (koff, per s) were calculated using a simple 1:1 Langmuir binding model (Biacore 4000 Evaluation Software). The equilibrium dissociation constant (KD, mol) was calculated as the ratio of koff/kₒₙ.
(In general: Surface plasmon resonance follows binding to a sensor surface in real time, without labels.)

Assay [1] deals with T2, FGFR1 on NCI-H520 cells (human, UniProt P11362 22-822). Put plainly: cell-based or functional assay.
T2 sequence (P11362 22-822): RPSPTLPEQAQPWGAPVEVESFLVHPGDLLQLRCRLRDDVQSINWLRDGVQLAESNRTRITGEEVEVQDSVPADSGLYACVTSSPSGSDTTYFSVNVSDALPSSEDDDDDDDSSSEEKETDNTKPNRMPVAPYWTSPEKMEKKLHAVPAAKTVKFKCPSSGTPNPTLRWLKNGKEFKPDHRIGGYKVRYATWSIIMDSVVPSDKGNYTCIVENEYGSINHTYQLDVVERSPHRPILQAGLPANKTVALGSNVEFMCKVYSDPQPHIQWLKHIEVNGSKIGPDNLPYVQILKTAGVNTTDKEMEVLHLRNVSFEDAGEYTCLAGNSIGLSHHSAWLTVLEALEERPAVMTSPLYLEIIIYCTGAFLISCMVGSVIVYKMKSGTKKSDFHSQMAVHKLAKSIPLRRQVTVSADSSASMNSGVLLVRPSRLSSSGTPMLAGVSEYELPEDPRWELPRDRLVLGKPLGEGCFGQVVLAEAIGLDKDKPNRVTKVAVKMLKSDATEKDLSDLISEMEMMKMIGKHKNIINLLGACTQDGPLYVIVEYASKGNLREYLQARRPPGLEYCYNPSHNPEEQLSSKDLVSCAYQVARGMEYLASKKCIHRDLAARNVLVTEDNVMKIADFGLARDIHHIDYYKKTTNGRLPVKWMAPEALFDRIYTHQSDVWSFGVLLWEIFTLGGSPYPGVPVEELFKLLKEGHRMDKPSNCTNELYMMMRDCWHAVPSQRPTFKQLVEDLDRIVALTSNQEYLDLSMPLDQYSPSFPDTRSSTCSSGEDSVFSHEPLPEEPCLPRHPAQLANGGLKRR
The target of assay [2] is T3, human FGFR1b-IIIc extracellular domain with a HIS tag (human, UniProt P11362 22-376).
T3 construct: also called huFGFR1b-IIIc; hFGFR1b-IIIc
T3 sequence: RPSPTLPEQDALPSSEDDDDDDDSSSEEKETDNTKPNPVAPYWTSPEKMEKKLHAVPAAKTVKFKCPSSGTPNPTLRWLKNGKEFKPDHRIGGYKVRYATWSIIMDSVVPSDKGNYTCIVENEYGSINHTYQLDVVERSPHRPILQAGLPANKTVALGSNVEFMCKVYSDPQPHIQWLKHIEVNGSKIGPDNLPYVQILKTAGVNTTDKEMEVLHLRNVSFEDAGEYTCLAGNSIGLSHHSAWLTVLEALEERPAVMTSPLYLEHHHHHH
Description: SPR (Biacore 4000), antibody captured, His-tagged FGFR1 injected; differs from the cell of Table 1. As to the method: as §1

The target of a further assay is T4, muFGFR1a-IIIc (mouse, UniProt P16092 22-376).
T4 construct: Bought, His6 tag; also called mouse FGFR1a-IIIc His6-tagged; murine FGFR1a-IIIc
T4 sequence (looked up): T1 sequence (looked up) with A53V, N83S, S164N, D287V
Description: SPR (Biacore 4000), antibody captured, His-tagged FGFR1 injected; no unit in the table, nM inferred from paragraph 90. As to the method: as §1

In the next assay the target is T5, rheFGFR1a-IIIc (rhesus monkey).
T5 construct: Bought, His6 tag; also called rhesus monkey FGFR1a-IIIc His6-tagged
The description is as above. As to the method: as §1

For assay [3], the target named is T2, FGFR1 on NCI-H520 cells. Put plainly: cell-based or functional assay. This is another data set of the same source.
For a further assay, the target named is T6, Human FGFR1 D2-His6 (human, UniProt P11362 22-254).
T6 construct: also called D2 domain; F3FR1c-D2
T6 sequence: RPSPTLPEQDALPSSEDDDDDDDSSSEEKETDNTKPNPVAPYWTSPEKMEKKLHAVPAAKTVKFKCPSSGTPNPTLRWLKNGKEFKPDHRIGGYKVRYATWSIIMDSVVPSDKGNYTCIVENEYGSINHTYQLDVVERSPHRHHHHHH
Description: ELISA, antibody titrated on FGFR1 Ig-D2, O.D. 450 nm [panel FGFR1 Ig-D2]. Background: ELISA stands for enzyme-linked immunosorbent assay.

Assay [4] addresses T7, human FGFR1b-IIIb extracellular domain with a HIS tag (human).
T7 construct: also called huFGFR1b-IIIb; hFGFR1b-IIIb
T7 chain: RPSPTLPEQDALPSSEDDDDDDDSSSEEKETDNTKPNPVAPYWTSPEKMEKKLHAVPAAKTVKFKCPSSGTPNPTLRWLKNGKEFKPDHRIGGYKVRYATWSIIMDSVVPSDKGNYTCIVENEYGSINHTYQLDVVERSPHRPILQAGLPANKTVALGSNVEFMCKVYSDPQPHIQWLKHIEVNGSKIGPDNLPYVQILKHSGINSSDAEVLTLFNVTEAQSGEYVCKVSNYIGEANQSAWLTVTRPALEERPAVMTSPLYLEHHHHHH
Put plainly: SPR (BIAcore), IgG1 format; target IIIb by paragraph 74 and paragraph 125, the table's title says IIIc; IgG1 (bivalent), not SEEDbody. As for the experimental part: as §1
The affinities to human FGFR1b-IIIb for the affinity matured clones reformatted as IgG and monovalent SEEDbodies were measured by BIAcore (using a protocol similar to the one described in Example 1.8) and compared to those of mAb #08 (Table 5).

The target of assay [5] is T7, human FGFR1b-IIIb extracellular domain …. Description: ELISA, EC50 from OD450 curves, monovalent SEEDbody format. As for the experimental part: (§2) The binding selectivity of the antibodies were tested by ELISA against the different FGFR family members: FGFR1, FGFR2, FGFR3 and FGFR4. Briefly plates were coated overnight with the different His6-tagged FGFR proteins, after blocking with 1% Bovine Serum albumin, 1 or 0.1 μg/ml of anti-FGFR1 antibodies were incubated for 1 h at room temperature. After washing, the bound antibodies were incubated for 1 h at room temperature with a peroxidase affiniPure F(ab′)2 Fragment goat anti-human Fc (Jackson ImmunoResearch Laboratories #109-036-098) and detection was performed using the TMB HRP Substrate solution (BioFx Lab # TMBW-1000-01).
(§3) The antibody #A08 both as an IgG1 (bivalent) and as a SEEDbody (monovalent), was affinity matured using the yeast display technology described in (Rhiel et al. 2014) and performing light chain shuffling from immunized OmniRats and naïve human library followed by CDR-H3 parsimonious mutagenesis. Following several sorting rounds, yeast clones were picked, unique clones were reformatted as described in Examples 1.6 and 3.1. The binding affinities of the anti-FGFR1 molecules against human FGFR1b-IIIb) and human FGFR1b-IIIc) were measured by ELISA using a similar protocol as described in Example 1.9. The OD450 was plotted against the antibody concentration and GraphPad Prism software was used to calculate EC₅₀ values (see FIG. 10). […] The best results were obtained with mAb #A02 and #C01 showing an EC50 improvement in both IgG1 and SEEDbody formats.

Assay [6] addresses T3, human FGFR1b-IIIc extracellular domain …. Described as above. As for the experimental part: as §2, §3

Where a chain is given by its changes, count along the chain named. Bounds are passed on as bounds.

B1: mAb #A05 (antibody, V domains shown)
VH: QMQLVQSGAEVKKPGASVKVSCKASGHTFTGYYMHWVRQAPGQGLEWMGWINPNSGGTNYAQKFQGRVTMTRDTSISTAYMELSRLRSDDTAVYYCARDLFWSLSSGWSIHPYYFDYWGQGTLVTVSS
VL: QSALTQPASVSGSPGQSITISCTGTSSDVGSYNLVSWYQQHPGKAPKLMIYGGSKRPSGVPDRFSGSKSDTSASLTISGLQAEDEADYYCCSYTYNGDVFGTGTKVTVL
notes: also called #A05 hit; A05 (IgG1)
B1: the binding result with ratFGFR1a-IIIc is on record as “no binding”. Also, in the assay with FGFR1 on NCI-H520 cells [1], the “IC50, inhibition of P-FGFR1 in NCI-H520 cells, FGF1 stimulated (asterisk: partial response)” value worked out at 1000 pM and the “IC50, inhibition of P-FGFR1 in NCI-H520 cells, FGF2 stimulated” value stood at 1000 pM. Further, the Kd in [2] was found to be 10 pM. The same molecule yielded a Kd with muFGFR1a-IIIc of 1600 pM. The Kd with rheFGFR1a-IIIc came out at 510 pM. For the same molecule, in the assay with FGFR1 on NCI-H520 cells [3], the “IC50, pFGFR1 inhibition in NCI-H520 cells, FGF1, IgG1 (asterisk: partial response)” value is 8e-09 M; the “IC50, pFGFR1 inhibition in NCI-H520 cells, FGF2, IgG1” value stood at 3e-09 M; the “IC50, pFGFR1 inhibition in NCI-H520 cells, non-stimulated, IgG1” value is greater than 1e-06 M. In addition, the binding result in the assay with Human FGFR1 D2-His6 was “no binding (tested: about 0.7 nM (Log(nM) about -0.15))”.

B2: #A08 IgG1 (standard IgG1 built from the #A08 lead heavy and light chains) (antibody, V domains shown)
VH: EVQLQESGPGLVKPSGTLSLTCAVSGGSISSNNWWSWVRQPPGKGLEWIGEIYHSGSTSYNPSLKSRVTISVDKSKNQFSLKLSSVTAADTAVYYCARGTDWFDPWGQGTLVTVSS
VL: SYVLTQPPSVSVAPGQTARITCGGNNIGSESVHWYQQKPGQAPVLVVYDDSDRPSGIPERFSGSNSGNTATLTISRVEAGDEADYYCQVWDSTSDHRVFGGGTKLTVLG
notes: also called #A08 lead IgG1; mAb #A08 in the IgG1 format
In turn, B2 had a Kd in assay [4] of 60 pM. For the same molecule, in the assay with FGFR1 on NCI-H520 cells [3], the “IC50, pFGFR1 inhibition in NCI-H520 cells, FGF1, IgG1” value was found to be 1e-09 M; the “IC50, pFGFR1 inhibition in NCI-H520 cells, FGF2, IgG1” value was 2e-10 M; the “IC50, pFGFR1 inhibition in NCI-H520 cells, non-stimulated, IgG1 (asterisk: partial response)” value was found to be 5e-08 M.

B3: #G04 SEEDbody (monovalent) (antibody)
heavy: QVQLQESGPGLVKPSGTLSLTCAVSGGSISSNNWWSWVRQPPGKGLEWIGEIYHSGSTSYNPSLKSRVTISVDKSKNQFSLKLSSVTAADTAVYYCARGTDWYDLWGQGTLVTVSSASTKGPSVFPLAPSSKSTSGGTAALGCLVKDYFPEPVTVSWNSGALTSGVHTFPAVLQSSGLYSLSSVVTVPSSSLGTQTYICNVNHKPSNTKVDKRVEPKSCDKTHTCPPCPAPELLGGPSVFLFPPKPKDTLMISRTPEVTCVVVDVSHEDPEVKFNWYVDGVEVHNAKTKPREEQYNSTYRVVSVLTVLHQDWLNGKEYKCKVSNKALPAPIEKTISKAKGQPFRPEVHLLPPSREEMTKNQVSLTCLARGFYPKDIAVEWESNGQPENNYKTTPSRQEPSQGTTTFAVTSKLTVDKSRWQQGNVFSCSVMHEALHNHYTQKTISLSPG
chain: EPKSSDKTHTCPPCPAPELLGGPSVFLFPPKPKDTLMISRTPEVTCVVVDVSHEDPEVKFNWYVDGVEVHNAKTKPREEQYNSTYRVVSVLTVLHQDWLNGKEYKCKVSNKALPAPIEKTISKAKGQPREPQVYTLPPPSEELALNELVTLTCLVKGFYPSDIAVEWLQGSQELPREKYLTWAPVLDSDGSFFLYSILRVAAEDWKKGDTFSCSVMHEALHNHYTQKSLDRSPG
light: SYVLTQPPSVSVAPGQTARITCGGNNIGSESVHWYQQKPGQAPVLVVYDDSDRPSGIPERFSGSNSGNTATLTISRVEAGDEADYYCQVWDSTSDHRVFGGGTKLTVLGQPKAAPSVTLFPPSSEELQANKATLVCLISDFYPGAVTVAWKADSSPVKAGVETTTPSKQSNNKYAASSYLSLTPEQWKSHKSYSCQVTHEGSTVEKTVAPTECS
notes: also called #G04-SEED(AG)
For B3, the binding result in assay [5] and in assay [6] was “binds” in each case.
